The text below walks through data of article PMC7022630 (Biomolecules, 2020).

The stoichiometry N is a count of units in the complex or per binding partner.

The series concerns the molecule itself. In words: SEC-MALS; Superdex 200 10/300 GL; 20 mM Tris-HCl pH 7.5, 150 mM sodium chloride, 0.5 mM TCEP; 100 μL of monomer and dimer fractions of NDRG3 ΔNC at 2.0 mg/mL injected separately, 0.4 mL/min.

B1: truncated human NDRG3 (residues 29–320, NDRG3 ΔNC) (domain or fragment)
chain: not shown
notes: N-Myc downstream-regulated gene 3 protein (NDRG3), human, 375 amino acids, residues 29-320; Elutes as monomer and dimer fractions; mainly monomer; No removal of the His tag is described; also called NDRG3 ΔNC WT; NDRG3 ΔNC wild type; source: E. coli BLR(DE3), purified (Ni-chelating, Q HP, Superdex 200); for the analytical SEC loaded after the Ni-chelating column
Regarding B1, the “stoichiometry N” value was 2.
